Laboratory results published in patent US20210070876A1 (LES LABORATOIRES SERVIER, published 2021).

Biological target: T1, His-tagged human CD73 ECD (human, UniProt P21589 27-549)
T1 construct: runs as a homodimer of about 124-125 kDa in SEC-MALS; also called CD73-His; CD73-His ECD antigen
T1 sequence: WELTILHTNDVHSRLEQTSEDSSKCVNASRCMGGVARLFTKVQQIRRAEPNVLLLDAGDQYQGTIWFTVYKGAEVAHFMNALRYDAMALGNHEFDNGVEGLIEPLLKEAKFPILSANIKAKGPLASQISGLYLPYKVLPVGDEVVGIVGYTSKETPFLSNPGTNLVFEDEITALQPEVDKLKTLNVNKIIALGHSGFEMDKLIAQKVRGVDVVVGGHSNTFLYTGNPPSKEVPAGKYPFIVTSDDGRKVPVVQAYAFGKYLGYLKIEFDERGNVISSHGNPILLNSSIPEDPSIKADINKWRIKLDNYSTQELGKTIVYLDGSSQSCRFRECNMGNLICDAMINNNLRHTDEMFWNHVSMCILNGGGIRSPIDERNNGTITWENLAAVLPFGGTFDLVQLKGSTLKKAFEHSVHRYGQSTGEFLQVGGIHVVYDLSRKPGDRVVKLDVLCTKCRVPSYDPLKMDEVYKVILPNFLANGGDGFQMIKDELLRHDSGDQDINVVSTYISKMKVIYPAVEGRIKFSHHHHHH
Experiment: SEC-MALS, mAb:CD73 0.5:1
Experimental: Anti-CD73 antibodies and His-tagged CD73 were analyzed in different ratios as well as individually to analyze the size of complexes formed between CD73 homodimer and anti-CD73 antibodies. Samples were prepared by mixing […] of CD73-His with 900, 450, 90 or 0 μmol of antibody diluted into PBS, pH 7.4. Samples were incubated for 30 min at room temperature followed by separation using a UHPLC UltiMate 3000 (Thermo Scientific) and SEC X-Bridge column (Waters) at a flow rate of 1.2 mL/min. Sample running buffer was 0.01 M Citrate, 250 mM L-Arginine.HCl, pH 6.0. Following HPLC separation, all samples were analyzed using a MiniDAWN TREOS MALS detector (Wyatt) and Optilab T-rEX refractive index detector (Wyatt). Data plots were generated using Graph Pad Prism.

B1: antibody 21127 (antibody, human IgG1, kappa, L234A L235A, V domains shown)
VH: EVQLVESGGGLVQPGRSLRLSCAASGFTFDDFAMHWVRQAPGKGLEWVSGISWNSGNIGYADSVKGRFTISRDNAKNSLYLQMNSLRAEDTALYYCAKDKSGSPYYYYGMDVWGQGTMVTVSS
VL: DIQMTQSPSSVSASVGDRVTITCRATQGISRRLAWYQQKPGKAPKLLIYAASSLQSGVPSRFSGSGSGTDFTLTISSLQPEDFATYYCQQANSFPLTFGGGTKVEIKR
notes: Fully human IgG1-LALA (L234A/L235A), kappa
**Q.** B1 was tested. Which “molecular mass of complex, Peak 2 (MW, kDa)” value did it give?
**A.** 277 kDa
